The results in this text go back to patent US20220144956A1 (published 2022).

The chains are these.
B1: H1 L1.44 XENP34607 (antibody, V domains shown)
VH: QLQVQESGPGLVKPSETLSLTCTVSGGSISNSYFSWGWIRQPPGKGLEWIGSFYYGEKTYYNPSLKSRATISIDTSKSQFSLKLSSVTAADTAVYYCPRGPTMIRGVIDSWGQGTLVTVSS
VL: EIVLTQSPATLSLSPGERATLSCRASQSVRSYLAWYQQKPGQAPRLLIYDASNRATGIPARFSGSGSGTDFTLTISSLEPEDFAVYYCQQRTNWPPTFGQGTKVEIK
B2: H1 L1.26 XENP34589 (antibody, V domains shown)
VH: QLQVQESGPGLVKPSETLSLTCTVSGGSISNSYFSWGWIRQPPGKGLEWIGSFYYGEKTYYNPSLKSRATISIDTSKSQFSLKLSSVTAADTAVYYCPRGPTMIRGVIDSWGQGTLVTVSS
VL: EIVLTQSPATLSLSPGERATLSCRASQSVRSYLAWYQQKPGQAPRLLIYDASNRASGIPARFSGSGSGTDFTLTISSLEPEDFAVYYCQQRSNWPPTFGQGTKVEIK
B3: H1 L1.13 XENP34576 (antibody, V domains shown)
VH: QLQVQESGPGLVKPSETLSLTCTVSGGSISNSYFSWGWIRQPPGKGLEWIGSFYYGEKTYYNPSLKSRATISIDTSKSQFSLKLSSVTAADTAVYYCPRGPTMIRGVIDSWGQGTLVTVSS
VL: EIVLTQSPATLSLSPGERATLSCRASQSVRSHLAWYQQKPGQAPRLLIYDASNRATGIPARFSGSGSGTDFTLTISSLEPEDFAVYYCQQRSNWPPTFGQGTKVEIK
B4: H1 L1.17 XENP34580 (antibody, V domains shown)
VH: QLQVQESGPGLVKPSETLSLTCTVSGGSISNSYFSWGWIRQPPGKGLEWIGSFYYGEKTYYNPSLKSRATISIDTSKSQFSLKLSSVTAADTAVYYCPRGPTMIRGVIDSWGQGTLVTVSS
VL: EIVLTQSPATLSLSPGERATLSCRASQSVRSYLTWYQQKPGQAPRLLIYDASNRATGIPARFSGSGSGTDFTLTISSLEPEDFAVYYCQQRSNWPPTFGQGTKVEIK
B5: H1 L1.41 XENP34604 (antibody, V domains shown)
VH: QLQVQESGPGLVKPSETLSLTCTVSGGSISNSYFSWGWIRQPPGKGLEWIGSFYYGEKTYYNPSLKSRATISIDTSKSQFSLKLSSVTAADTAVYYCPRGPTMIRGVIDSWGQGTLVTVSS
VL: EIVLTQSPATLSLSPGERATLSCRASQSVRSYLAWYQQKPGQAPRLLIYDASNRATGIPARFSGSGSGTDFTLTISSLEPEDFAVYYCQQRANWPPTFGQGTKVEIK
B6: H1 L1.39 XENP34602 (antibody, V domains shown)
VH: QLQVQESGPGLVKPSETLSLTCTVSGGSISNSYFSWGWIRQPPGKGLEWIGSFYYGEKTYYNPSLKSRATISIDTSKSQFSLKLSSVTAADTAVYYCPRGPTMIRGVIDSWGQGTLVTVSS
VL: EIVLTQSPATLSLSPGERATLSCRASQSVRSYLAWYQQKPGQAPRLLIYDASNRATGIPARFSGSGSGTDFTLTISSLEPEDFAVYYCQQQSNWPPTFGQGTKVEIK
B7: H1 L1.18 XENP34581 (antibody, V domains shown)
VH: QLQVQESGPGLVKPSETLSLTCTVSGGSISNSYFSWGWIRQPPGKGLEWIGSFYYGEKTYYNPSLKSRATISIDTSKSQFSLKLSSVTAADTAVYYCPRGPTMIRGVIDSWGQGTLVTVSS
VL: EIVLTQSPATLSLSPGERATLSCRASQSVRSYLAWYQQKPGKAPRLLIYDASNRATGIPARFSGSGSGTDFTLTISSLEPEDFAVYYCQQRSNWPPTFGQGTKVEIK
B8: H1 L1.15 XENP34578 (antibody, V domains shown)
VH: QLQVQESGPGLVKPSETLSLTCTVSGGSISNSYFSWGWIRQPPGKGLEWIGSFYYGEKTYYNPSLKSRATISIDTSKSQFSLKLSSVTAADTAVYYCPRGPTMIRGVIDSWGQGTLVTVSS
VL: EIVLTQSPATLSLSPGERATLSCRASQSVRSYLNWYQQKPGQAPRLLIYDASNRATGIPARFSGSGSGTDFTLTISSLEPEDFAVYYCQQRSNWPPTFGQGTKVEIK
B9: H1 L1.10 XENP34573 (antibody, V domains shown)
VH: QLQVQESGPGLVKPSETLSLTCTVSGGSISNSYFSWGWIRQPPGKGLEWIGSFYYGEKTYYNPSLKSRATISIDTSKSQFSLKLSSVTAADTAVYYCPRGPTMIRGVIDSWGQGTLVTVSS
VL: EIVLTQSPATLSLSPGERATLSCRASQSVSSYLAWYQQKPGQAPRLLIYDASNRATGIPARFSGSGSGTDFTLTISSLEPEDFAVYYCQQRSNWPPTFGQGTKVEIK
B10: H1 L1.8 XENP34571 (antibody, V domains shown)
VH: QLQVQESGPGLVKPSETLSLTCTVSGGSISNSYFSWGWIRQPPGKGLEWIGSFYYGEKTYYNPSLKSRATISIDTSKSQFSLKLSSVTAADTAVYYCPRGPTMIRGVIDSWGQGTLVTVSS
VL: EIVLTQSPATLSLSPGERATLSCRASQSVKSYLAWYQQKPGQAPRLLIYDASNRATGIPARFSGSGSGTDFTLTISSLEPEDFAVYYCQQRSNWPPTFGQGTKVEIK
B11: H1 L1.14 XENP34577 (antibody, V domains shown)
VH: QLQVQESGPGLVKPSETLSLTCTVSGGSISNSYFSWGWIRQPPGKGLEWIGSFYYGEKTYYNPSLKSRATISIDTSKSQFSLKLSSVTAADTAVYYCPRGPTMIRGVIDSWGQGTLVTVSS
VL: EIVLTQSPATLSLSPGERATLSCRASQSVRSNLAWYQQKPGQAPRLLIYDASNRATGIPARFSGSGSGTDFTLTISSLEPEDFAVYYCQQRSNWPPTFGQGTKVEIK
B12: H1 L1.25 XENP34588 (antibody, V domains shown)
VH: QLQVQESGPGLVKPSETLSLTCTVSGGSISNSYFSWGWIRQPPGKGLEWIGSFYYGEKTYYNPSLKSRATISIDTSKSQFSLKLSSVTAADTAVYYCPRGPTMIRGVIDSWGQGTLVTVSS
VL: EIVLTQSPATLSLSPGERATLSCRASQSVRSYLAWYQQKPGQAPRLLIYDASTRATGIPARFSGSGSGTDFTLTISSLEPEDFAVYYCQQRSNWPPTFGQGTKVEIK
B13: H1 L1.28 XENP34591 (antibody, V domains shown)
VH: QLQVQESGPGLVKPSETLSLTCTVSGGSISNSYFSWGWIRQPPGKGLEWIGSFYYGEKTYYNPSLKSRATISIDTSKSQFSLKLSSVTAADTAVYYCPRGPTMIRGVIDSWGQGTLVTVSS
VL: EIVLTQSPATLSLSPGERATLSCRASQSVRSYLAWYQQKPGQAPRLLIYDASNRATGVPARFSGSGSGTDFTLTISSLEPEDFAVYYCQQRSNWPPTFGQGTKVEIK
B14: H1 L1.21 XENP34584 (antibody, V domains shown)
VH: QLQVQESGPGLVKPSETLSLTCTVSGGSISNSYFSWGWIRQPPGKGLEWIGSFYYGEKTYYNPSLKSRATISIDTSKSQFSLKLSSVTAADTAVYYCPRGPTMIRGVIDSWGQGTLVTVSS
VL: EIVLTQSPATLSLSPGERATLSCRASQSVRSYLAWYQQKPGQAPRLLIYGASNRATGIPARFSGSGSGTDFTLTISSLEPEDFAVYYCQQRSNWPPTFGQGTKVEIK
B15: H1 L1.16 XENP34579 (antibody, V domains shown)
VH: QLQVQESGPGLVKPSETLSLTCTVSGGSISNSYFSWGWIRQPPGKGLEWIGSFYYGEKTYYNPSLKSRATISIDTSKSQFSLKLSSVTAADTAVYYCPRGPTMIRGVIDSWGQGTLVTVSS
VL: EIVLTQSPATLSLSPGERATLSCRASQSVRSYLSWYQQKPGQAPRLLIYDASNRATGIPARFSGSGSGTDFTLTISSLEPEDFAVYYCQQRSNWPPTFGQGTKVEIK
B16: H1 L1.32 XENP34595 (antibody, V domains shown)
VH: QLQVQESGPGLVKPSETLSLTCTVSGGSISNSYFSWGWIRQPPGKGLEWIGSFYYGEKTYYNPSLKSRATISIDTSKSQFSLKLSSVTAADTAVYYCPRGPTMIRGVIDSWGQGTLVTVSS
VL: EIVLTQSPATLSLSPGERATLSCRASQSVRSYLAWYQQKPGQAPRLLIYDASNRATGIPARFSGSGSGTDFTLTISSLQPEDFAVYYCQQRSNWPPTFGQGTKVEIK

human TGFßRII (antigen of the Octet experiments), sequence (P37173 23-166): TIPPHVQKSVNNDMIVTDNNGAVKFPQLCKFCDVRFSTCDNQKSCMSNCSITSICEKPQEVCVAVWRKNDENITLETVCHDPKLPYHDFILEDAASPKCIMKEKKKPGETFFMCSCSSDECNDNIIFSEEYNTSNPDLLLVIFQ

The experiment concerns the target human TGFßRII (antigen of the Octet experiments) (human, UniProt P37173 23-166). In words: BLI (Octet). A general note: In BLI a coated tip is dipped into the sample, and binding shifts an interference pattern.
Broadly, the Kd is the concentration at which binding is half-saturated. A low value points to higher affinity. Take B1: binding was characterised by a dissociation constant (Kd) of 2.03 nM. This counts as single-digit nanomolar.

Molecule B2 registered a Kd of 0.99 nM.

Turning to B3, binding was characterised by a dissociation constant (Kd) of 1.19 nM.

Molecule B4 registered a Kd of 0.622 nM.

Turning to B5, the dissociation constant (Kd) worked out at 2.49 nM.

In the case of B6, the dissociation constant (Kd) is 21 nM.

On to B7, for which the dissociation constant (Kd) was 0.831 nM. Compared with the last molecule, the Kd is about 25-fold lower.

Turning to B8, the dissociation constant Kd is 2.48 nM.

B9 returned a Kd of 10.7 nM.

Take B10: the Kd worked out at 1.11 nM.

The molecule B11 registered a Kd of 1.26 nM. This Kd and that of the molecule before are within 1.5-fold of each other.

B12 gave an equilibrium dissociation constant (Kd) of 0.921 nM.

B13: binding was characterised by a dissociation constant (Kd) of 0.891 nM.

B14 yielded a Kd of 0.429 nM.

Take B15: the dissociation constant Kd was found to be 0.464 nM. This Kd and that of the molecule before are within 1.5-fold of each other.

As to B16, the dissociation constant (Kd) turned out to be 1 nM.
